The supplement of paper PMC7877785
± gives the uncertainty stated by the source.

Test: self-splicing fitness, log relative to wild type (ln ratio); higher = more splicing; Tetrahymena group I intron in knt gene, E. coli kanamycin selection, DiMSum; sequences stand for … in CUCUCU…GGAGGGAAAAGUUAUCAGGCAUGCACCUGGUAGCUAGUCUUUAAACCAAUAGAUUGCAUCGGUUUAAAAGGCAAGACCGUCAAAUUGCGGGAAAGGGGUCAACAGCCGUUCAGUACCAAGUCUCAGGGGAAACUUUGAGAUGGCCUUGCAAAGGGUAUGGUAAUAAGCUGACGGACAUGGUCCUAACCACGCAGCCAAGUCCUAAGUCAACAGAUCUUCUGUUGAUAUGGAUGCAGUUCACAGACUAAAUGUCGGUCGGGGAAGAUGUAUUCUUCUCAUAAGAUAUAGUCGGACCUCUCCUUAAUGGGAGCUAGCGGAUGAAGUGAUGCAACACUGGAGCCGCUGGGAACUAAUUUGUAUGCGAAAGUAUAUUGAUUAGUUUUGGAGUACUCGUGGUCG
How it was run: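 Library with all eight P1ex-region intron nucleotides randomised, intron inside the knt kanamycin-resistance gene on pET-22b(+), in E. coli BL21(DE3). Cells grew overnight at 37°C or 30°C on LB agar with or without 25 μg/mL kanamycin (plus 100 μg/mL carbenicillin, 50 μM IPTG, 0.2% rhamnose), in six replicate transformations. Pooled colonies were amplicon-sequenced on Illumina HiSeq 2500. DiMSum fitness is the error-weighted combination of wild-type-normalised replicate fold changes, kanamycin versus none.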

| Sequence | self-splicing fitness (ln) (30 °C) | self-splicing fitness (ln) (37 °C) |
| --- | --- | --- |
| GGUCAGCAAUAUUACGCGCC | 0.245 ± 0.39 | – |
| GUCCAGCAAUAUUACGACUC | -0.116 ± 0.087 | -0.335 ± 0.1 |
| GACUAGCAAUAUUACGCUAU | – | -3.22 ± 0.43 |
| GUAUAGCAAUAUUACGACAG | -2.58 ± 0.19 | -1.9 ± 0.25 |
| AGACAGCAAUAUUACGCCCG | -0.434 ± 0.17 | -0.555 ± 0.24 |
| UUGGAGCAAUAUUACGAGGU | -2.02 ± 0.47 | – |
| UUCUAGCAAUAUUACGGAGU | -2.24 ± 0.2 | -2.56 ± 0.26 |
| CCUAAGCAAUAUUACGUACU | -3.76 ± 0.43 | -3.01 ± 0.29 |
| GACUAGCAAUAUUACGGACC | -1.77 ± 0.38 | -0.714 ± 0.39 |
| UAACAGCAAUAUUACGCAGA | -2.78 ± 0.14 | -1.47 ± 0.087 |
| CCUAAGCAAUAUUACGGUAC | -2.81 ± 0.22 | -2.17 ± 0.34 |
| GUCGAGCAAUAUUACGUUAC | -3.38 ± 0.22 | -1.49 ± 0.27 |
| CUACAGCAAUAUUACGCACG | -0.609 ± 0.07 | 0.378 ± 0.08 |
| UGCAAGCAAUAUUACGAGAG | -3.4 ± 0.2 | -2.97 ± 0.21 |
| AUCCAGCAAUAUUACGUGCA | -1.63 ± 0.091 | -0.196 ± 0.091 |
| UAACAGCAAUAUUACGUUAA | -3.25 ± 0.2 | -1.6 ± 0.12 |
| GUCAAGCAAUAUUACGGUCG | -3.23 ± 0.14 | -1.26 ± 0.13 |
| AUAGAGCAAUAUUACGACUU | -0.0326 ± 0.11 | 0.17 ± 0.11 |
| CCUGAGCAAUAUUACGGUUG | -3.44 ± 0.13 | -1.3 ± 0.1 |
| GUGGAGCAAUAUUACGUACU | -2.19 ± 0.37 | -2.2 ± 0.32 |

| Sequence | self-splicing fitness (ln) (30 °C) | self-splicing fitness (ln) (37 °C) |
| --- | --- | --- |
| CUUUAGCAAUAUUACGAUUA | – | -1.92 ± 0.31 |
| CCCAAGCAAUAUUACGCAGA | -2.74 ± 0.21 | -2.72 ± 0.14 |
| ACGAAGCAAUAUUACGGGAG | -3.96 ± 0.22 | -2.73 ± 0.17 |
| UCGCAGCAAUAUUACGAAUC | -4.04 ± 0.2 | -2.61 ± 0.2 |
| CGAAAGCAAUAUUACGGUGC | -3.09 ± 0.17 | -2.65 ± 0.21 |
| GCUGAGCAAUAUUACGGACA | -2.53 ± 0.2 | -0.488 ± 0.17 |
| AUAAAGCAAUAUUACGAUGC | -1.39 ± 0.08 | -0.56 ± 0.12 |
| UAACAGCAAUAUUACGCGAU | -3.97 ± 0.32 | -2.36 ± 0.23 |
| GGUCAGCAAUAUUACGGCGU | 0.348 ± 0.11 | 0.0889 ± 0.12 |
| ACCCAGCAAUAUUACGGGCU | -1.68 ± 0.07 | -0.729 ± 0.072 |
| UAAUAGCAAUAUUACGUUCA | -0.833 ± 0.098 | -0.14 ± 0.1 |
| AGCGAGCAAUAUUACGACAA | -3.33 ± 0.41 | -1.23 ± 0.3 |
| AAGCAGCAAUAUUACGCUAA | -1.46 ± 0.075 | -1.12 ± 0.086 |
| AAAUAGCAAUAUUACGAACU | 1.11 ± 0.17 | -0.182 ± 0.16 |
| GAGGAGCAAUAUUACGAGUA | – | -1.51 ± 0.37 |
| CUUUAGCAAUAUUACGUGAC | -1.42 ± 0.19 | -1.53 ± 0.29 |
| UUCCAGCAAUAUUACGCCAA | -0.739 ± 0.12 | -0.362 ± 0.17 |
| CCUCAGCAAUAUUACGCUUC | -3.45 ± 0.39 | -3.01 ± 0.33 |
| AACUAGCAAUAUUACGCAUU | -2.19 ± 0.077 | -1.09 ± 0.073 |
